We go through seven molecules from US20240141042A1 (INNATE PHARMA, published 2024).

Changes are numbered by the printed parent chain. Numbers in names are those of the source.

T1: NKp46 mutant 19 (human, UniProt O76036 22-304)
T1 construct: Expressed in transfected HEK293T cells
T1 chain: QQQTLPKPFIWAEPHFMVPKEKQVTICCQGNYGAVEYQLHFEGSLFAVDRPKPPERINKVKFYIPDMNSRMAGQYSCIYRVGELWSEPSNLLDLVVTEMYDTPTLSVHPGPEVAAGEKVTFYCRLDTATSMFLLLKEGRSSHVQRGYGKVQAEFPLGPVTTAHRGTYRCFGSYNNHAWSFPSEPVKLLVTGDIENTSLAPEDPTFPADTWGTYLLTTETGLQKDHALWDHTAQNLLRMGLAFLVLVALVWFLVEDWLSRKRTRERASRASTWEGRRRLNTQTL

T2: NKp46 mutant Supp8 (human, UniProt O76036 22-304)
T2 construct: Expressed in transfected HEK293T cells; also called supplementary mutant Supp8
T2 chain: T1 chain with P111A, E112A, A114I, A115S

B1: CD19-F9A-NKp46-3 (bispecific antibody, human IgG1, kappa)
chain 1: not shown
chain 2: not shown
chain 3: DIVMTQSPATLSVTPGDRVSLSCRASQSISDYLHWYQQKSHESPRLLIKYASQSISGIPSRFSGSGSGSDFTLSINSVEPEDVGVYYCQNGHSFPLTFGAGTKLELKASTKGPSVFPLAPSSKSTSGGTAALGCLVKDYFPEPVTVSWNSGALTSGVHTFPAVLQSSGLYSLSSVVTVPSSSLGTQTYICNVNHKPSNTKVDKRVEPKSCDKTH
notes: Heterotrimer with monomeric Fc (tandem CH3, N297S) and wild-type hinge cysteines
B2: CD19-F4-NKp46-3 (bispecific antibody)
chain: DIQLTQSPASLAVSLGQRATISCKASQSVDYDGDSYLNWYQQIPGQPPKLLIYDASNLVSGIPPRFSGSGSGTDFTLNIHPVEKVDAATYHCQQSTEDPWTFGGGTKLEIKGGGGSGGGGSGGGGSQVQLQQSGAELVRPGSSVKISCKASGYAFSSYWMNWVKQRPGQGLEWIGQIWPGDGDTNYNGKFKGKATLTADESSSTAYMQLSSLASEDSAVYFCARRETTTVGRYYYAMDYWGQGTTVTVSSGGGSSAPELLGGPSVFLFPPKPKDTLMISRTPEVTCVVVDVSHEDPEVKFNWYVDGVEVHNAKTKPREEQYSSTYRVVSVLTVLHQDWLNGKEYKCKVSNKALPAPIEKTISKAKGQPREPQVYTLPPSREEMTKNQVSLTCLVKGFYPSDIAVEWESNGQPENNYKTTPPVLDSDGSFFLYSKLTVDKSRWQQGNVFSCSVMHEALHNHYTQKSLSLSPGGGGGSGGGGSGGGGSGQPREPQVYTLPPSREEMTKNQVSLTCLVKGFYPSDIAVEWESNGQPENNYKTTPPVLDSDGSFFLYSKLTVDKSRWQQGNVFSCSVMHEALHNHYTQKSLSLSPGSTGSEVQLQQSGPELVKPGASVKISCKTSGYTFTEYTMHWVKQSHGKSLEWIGGISPNIGGTSYNQKFKGKATLTVDKSSSTAYMELRSLTSEDSAVYYCARRGGSFDYWGQGTTLTVSSVEGGSGGSGGSGGSGGVDDIVMTQSPATLSVTPGDRVSLSCRASQSISDYLHWYQQKSHESPRLLIKYASQSISGIPSRFSGSGSGSDFTLSINSVEPEDVGVYYCQNGHSFPLTFGAGTKLELK
notes: Single chain with tandem CH3 and N297S
B3: CD19-F1-NKp46-3 (bispecific antibody)
chain: DIQLTQSPASLAVSLGQRATISCKASQSVDYDGDSYLNWYQQIPGQPPKLLIYDASNLVSGIPPRFSGSGSGTDFTLNIHPVEKVDAATYHCQQSTEDPWTFGGGTKLEIKGGGGSGGGGSGGGGSQVQLQQSGAELVRPGSSVKISCKASGYAFSSYWMNWVKQRPGQGLEWIGQIWPGDGDTNYNGKFKGKATLTADESSSTAYMQLSSLASEDSAVYFCARRETTTVGRYYYAMDYWGQGTTVTVSSGGGSSAPELLGGPSVFLFPPKPKDTLMISRTPEVTCVVVDVSHEDPEVKFNWYVDGVEVHNAKTKPREEQYNSTYRVVSVLTVLHQDWLNGKEYKCKVSNKALPAPIEKTISKAKGQPREPQVYTKPPSREEMTKNQVSLSCLVKGFYPSDIAVEWESNGQPENNYKTTVPVLDSDGSFRLASYLTVDKSRWQQGNVFSCSVMHEALHNHYTQKSLSLSPGSTGSEVQLQQSGPELVKPGASVKISCKTSGYTFTEYTMHWVKQSHGKSLEWIGGISPNIGGTSYNQKFKGKATLTVDKSSSTAYMELRSLTSEDSAVYYCARRGGSFDYWGQGTTLTVSSVEGGSGGSGGSGGSGGVDDIVMTQSPATLSVTPGDRVSLSCRASQSISDYLHWYQQKSHESPRLLIKYASQSISGIPSRFSGSGSGSDFTLSINSVEPEDVGVYYCQNGHSFPLTFGAGTKLELK
notes: Single chain F1 format; also called bi-specific antibody NKp46-3 (F1)
B4: CD19-F1-NKp46-4 (bispecific antibody)
chain: DIQLTQSPASLAVSLGQRATISCKASQSVDYDGDSYLNWYQQIPGQPPKLLIYDASNLVSGIPPRFSGSGSGTDFTLNIHPVEKVDAATYHCQQSTEDPWTFGGGTKLEIKGGGGSGGGGSGGGGSQVQLQQSGAELVRPGSSVKISCKASGYAFSSYWMNWVKQRPGQGLEWIGQIWPGDGDTNYNGKFKGKATLTADESSSTAYMQLSSLASEDSAVYFCARRETTTVGRYYYAMDYWGQGTTVTVSSGGGSSAPELLGGPSVFLFPPKPKDTLMISRTPEVTCVVVDVSHEDPEVKFNWYVDGVEVHNAKTKPREEQYNSTYRVVSVLTVLHQDWLNGKEYKCKVSNKALPAPIEKTISKAKGQPREPQVYTKPPSREEMTKNQVSLSCLVKGFYPSDIAVEWESNGQPENNYKTTVPVLDSDGSFRLASYLTVDKSRWQQGNVFSCSVMHEALHNHYTQKSLSLSPGSTGSQVQLQQSAVELARPGASVKMSCKASGYTFTSFTMHWVKQRPGQGLEWIGYINPSSGYTEYNQKFKDKTTLTADKSSSTAYMQLDSLTSDDSAVYYCVRGSSRGFDYWGQGTLVTVSAVEGGSGGSGGSGGSGGVDDIQMIQSPASLSVSVGETVTITCRASENIYSNLAWFQQKQGKSPQLLVYAATNLADGVPSRFSGSGSGTQYSLKINSLQSEDFGIYYCQHFWGTPRTFGGGTKLEIK
notes: Single chain F1 format
B5: CD19-F1-NKp46-2 (bispecific antibody)
chain: DIQLTQSPASLAVSLGQRATISCKASQSVDYDGDSYLNWYQQIPGQPPKLLIYDASNLVSGIPPRFSGSGSGTDFTLNIHPVEKVDAATYHCQQSTEDPWTFGGGTKLEIKGGGGSGGGGSGGGGSQVQLQQSGAELVRPGSSVKISCKASGYAFSSYWMNWVKQRPGQGLEWIGQIWPGDGDTNYNGKFKGKATLTADESSSTAYMQLSSLASEDSAVYFCARRETTTVGRYYYAMDYWGQGTTVTVSSGGGSSAPELLGGPSVFLFPPKPKDTLMISRTPEVTCVVVDVSHEDPEVKFNWYVDGVEVHNAKTKPREEQYNSTYRVVSVLTVLHQDWLNGKEYKCKVSNKALPAPIEKTISKAKGQPREPQVYTKPPSREEMTKNQVSLSCLVKGFYPSDIAVEWESNGQPENNYKTTVPVLDSDGSFRLASYLTVDKSRWQQGNVFSCSVMHEALHNHYTQKSLSLSPGSTGSEVQLQESGPGLVKPSQSLSLTCTVTGYSITSDYAWNWIRQFPGNKLEWMGYITYSGSTSYNPSLESRISITRDTSTNQFFLQLNSVTTEDTATYYCARGGYYGSSWGVFAYWGQGTLVTVSAVEGGSGGSGGSGGSGGVDDIQMTQSPASLSASVGETVTITCRVSENIYSYLAWYQQKQGKSPQLLVYNAKTLAEGVPSRFSGSGSGTQFSLKINSLQPEDFGSYYCQHHYGTPWTFGGGTKLEIK
notes: Single chain F1 format; also called bi-specific antibody NKp46-2 (F1)
B6: NKp46-9 (antibody, V domains shown)
VH: DVQLQESGPGLVKPSQSLSLTCTVTGYSITSDYAWNWIRQFPGNKLEWMGYITYSGSTNYNPSLKSRISITRDTSKNQFFLQLNSVTTEDTATYYCARCWDYALYAMDCWGQGTSVTVSS
VL: DIQMTQSPASLSASVGETVTITCRTSENIYSYLAWCQQKQGKSPQLLVYNAKTLAEGVPSRFSGSGSGTHFSLKINSLQPEDFGIYYCQHHYDTPLTFGAGTKLELK
notes: not in the list MOLECULES as an antibody; also called antibody NKp46-9; monoclonal antibody NKp46-9
B7: NKp46-1 (antibody, V domains shown)
VH: QVQLQQSGPELVKPGASVKMSCKASGYTFTDYVINWGKQRSGQGLEWIGEIYPGSGTNYYNEKFKAKATLTADKSSNIAYMQLSSLTSEDSAVYFCARRGRYGLYAMDYWGQGTSVTVSS
VL: DIQMTQTTSSLSASLGDRVTISCRASQDISNYLNWYQQKPDGTVKLLIYYTSRLHSGVPSRFSGSGSGTDYSLTINNLEQEDIATYFCQQGNTRPWTFGGGTKLEIK
notes: also called Antibody NKp46-1; parental human IgG1 chimeric antibody NKp46-1

T3 sequence (P55899 24-297 limits assumed, form in doubt, chain 1 of 2): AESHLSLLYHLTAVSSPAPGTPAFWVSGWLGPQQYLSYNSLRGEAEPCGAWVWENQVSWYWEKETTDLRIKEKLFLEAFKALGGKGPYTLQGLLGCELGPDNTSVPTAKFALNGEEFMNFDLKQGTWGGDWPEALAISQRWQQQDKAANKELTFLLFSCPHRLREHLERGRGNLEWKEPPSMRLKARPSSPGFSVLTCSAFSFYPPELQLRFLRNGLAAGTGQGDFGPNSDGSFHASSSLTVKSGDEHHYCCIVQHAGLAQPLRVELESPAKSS
T3 sequence (P61769 21-119 limits assumed, form in doubt, chain 2 of 2): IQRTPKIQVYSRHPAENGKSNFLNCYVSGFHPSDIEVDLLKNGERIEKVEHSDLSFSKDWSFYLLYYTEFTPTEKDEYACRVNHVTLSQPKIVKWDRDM

One assay has as its target T3, human FcRn (Example 10) (human, UniProt P55899 24-297; P61769 21-119, limits assumed).
T3 construct: Construct not described; Beta-2-microglobulin is not mentioned; also called recombinant FcRn proteins
Briefly: SPR, FcRn immobilized on CM5, Steady State. Background: Surface plasmon resonance follows binding to a sensor surface in real time, without labels.
For orientation: Kd means the concentration at which binding is half-saturated. Take B1: the Kd was found to be 858 nM.
Still for that read-out and setting: the same measure for B2: 712 nM.

The next assay has as its target T4, Human NKp46 recombinant proteins (human, UniProt O76036 22-258).
T4 construct: also called recombinant human NKp46 proteins
Briefly: SPR, bispecific captured on Protein-A chip, human NKp46 injected, 1:1 kinetic model. The protocol:
SPR measurements were performed on a Biacore T100 apparatus (Biacore GE Healthcare) at 25° C. In all Biacore experiments HBS-EP+(Biacore GE Healthcare) and NaOH 10 mM served as running buffer and regeneration buffer respectively. Sensorgrams were analyzed with Biacore T100 Evaluation software. Protein-A was purchase from (GE Healthcare). Human NKp46 recombinant proteins were cloned, produced and purified at Innate Pharma.
Protein-A proteins were immobilized covalently to carboxyl groups in the dextran layer on a Sensor Chip CM5. The chip surface was activated with EDC/NHS (N-ethyl-N′-(3-dimethylaminopropyl) carbodiimidehydrochloride and N-hydroxysuccinimide (Biacore GE Healthcare)). Protein-A was diluted to 10 μg/ml in coupling buffer (10 mM acetate, pH 5.6) and injected until the appropriate immobilization level was reached (i.e. 2000 RU). Deactivation of the remaining activated groups was performed using 100 mM ethanolamine pH 8 (Biacore GE Healthcare).
Monovalent affinity study was done following a regular Capture-Kinetic protocol recommended by the manufacturer (Biacore GE Healthcare kinetic wizard). Seven serial dilutions of human NKp46 recombinant proteins, ranging from 6.25 to 400 nM were sequentially injected over the captured Bi-Specific antibodies and allowed to dissociate for 10 min before regeneration. The entire sensorgram sets were fitted using the 1:1 kinetic binding model.
For orientation: koff means the rate constant with which the complex falls apart. As a reminder, the kon is the second-order rate constant of association. Turning to B1, the Kd was found to be 32 nM, the koff was determined as 0.00669 s⁻¹ and the association rate constant (kon) is 207000 M⁻¹ s⁻¹.
In the same order, the values of B3 are 9.14 nM, 0.000644 s⁻¹ and 70500 M⁻¹ s⁻¹.
In the same order, the values of B2 are 30 nM, 0.011 s⁻¹ and 368000 M⁻¹ s⁻¹.
In the case of B4, the Kd was determined as 4.85 nM, the koff was found to be 0.000653 s⁻¹ and the kon turned out to be 135000 M⁻¹ s⁻¹.
For the molecule B5, the Kd is 8.93 nM, the koff worked out at 0.00145 s⁻¹ and the association rate constant (kon) was 162000 M⁻¹ s⁻¹.

The next assay deals with T1, NKp46 mutant 19. Briefly: flow cytometry on HEK293T cells transfected with NKp46 mutant 19 (I135A, S136A), antibody titrated 0.001-1 ug/ml.
Turning to B6, the binding result was “binds”.
Same read-out and setting: to B7 belongs “binds”.

The target of the next assay is T2, NKp46 mutant Supp8. Put plainly: flow cytometry on HEK293T cells transfected with NKp46 mutant Supp8 (P132A, E133A; printed 'Mutant S8'), antibody titrated 0.001-1 ug/ml. A general note: A flow cytometer gives signals particle by particle.
With B6, the binding result was “binds”.
Regarding B7, the binding result is “binds”.
